Measured values as given in patent publication US20050276811A1.
Values belong to the binder of their own block, whether it stands above or below them.

Columns and labels:
IgM^CM-22 [1] = test: competition ELISA: synthetic P8 peptide titrated against phage P8 binding to IgM^CM-22-coated plate
IgM^CM-22 [2] = test: cell-based or functional assay
IgM^CM-22 [3] = test: SPR (BiaCore), IgM^CM-22 amine-coupled to CM5 chip, N2 injected at 10.5-120 µM, steady-state fit with 1:1 Langmuir isotherm

IC50 (IgM^CM-22 [1]): 10 µM
concentration of P8 sufficient to block IgM^CM-22 (IgM^CM-22 [2]): 10 µM
mean pathology score, intestinal RI in RAG-1-/- mice given IgM^CM-22 mixed with P8 versus IgM^CM-22 alone (pathology score) (IgM^CM-22 [2]): 6
B1: synthetic peptide P8 (peptide)
peptide: NGNNVNGNRNNN

Kd (IgM^CM-22 [3]): 123 µM
mean pathology score, intestinal RI in RAG-1-/- mice given IgM^CM-22 mixed with N2 versus IgM^CM-22 and saline (pathology score) (IgM^CM-22 [2]): 13
B2: self-peptide N2 (peptide)
peptide: LMKNMDPLNDNV
